One block for each molecule: values may come before it.
Columns and labels:
[1] = target: T1, G9a and GLP (Homo sapiens, UniProt Q96KQ7+Q9H9B1); test: Triple SILAC pull-down after UNC0638 treatment of 293T cells, DMSO/UNC0638 ratio of protein captured by 3×MBT; assay type: cell-based; design: endogenous in cells; host or cells: HEK 293T; settings: for Relative to UNC0638 UNC Heavy: UNC0638 in heavy SILAC media; for Relative to UNC0638 UNC Light: UNC0638 in light SILAC media; for Relative to UNC0638 Average: average of UNC Light and UNC Heavy experiments;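 on all read-outs here: mass spectrometry (Q-Exactive) SILAC quantitation, DMSO/UNC0638 ratio computed after subtracting 3×MBTD355N mutant pull-down background, only proteins with at least twofold 3×MBT over mutant signal considered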
T1 sequence (Q96KQ7 2-1210 limits assumed): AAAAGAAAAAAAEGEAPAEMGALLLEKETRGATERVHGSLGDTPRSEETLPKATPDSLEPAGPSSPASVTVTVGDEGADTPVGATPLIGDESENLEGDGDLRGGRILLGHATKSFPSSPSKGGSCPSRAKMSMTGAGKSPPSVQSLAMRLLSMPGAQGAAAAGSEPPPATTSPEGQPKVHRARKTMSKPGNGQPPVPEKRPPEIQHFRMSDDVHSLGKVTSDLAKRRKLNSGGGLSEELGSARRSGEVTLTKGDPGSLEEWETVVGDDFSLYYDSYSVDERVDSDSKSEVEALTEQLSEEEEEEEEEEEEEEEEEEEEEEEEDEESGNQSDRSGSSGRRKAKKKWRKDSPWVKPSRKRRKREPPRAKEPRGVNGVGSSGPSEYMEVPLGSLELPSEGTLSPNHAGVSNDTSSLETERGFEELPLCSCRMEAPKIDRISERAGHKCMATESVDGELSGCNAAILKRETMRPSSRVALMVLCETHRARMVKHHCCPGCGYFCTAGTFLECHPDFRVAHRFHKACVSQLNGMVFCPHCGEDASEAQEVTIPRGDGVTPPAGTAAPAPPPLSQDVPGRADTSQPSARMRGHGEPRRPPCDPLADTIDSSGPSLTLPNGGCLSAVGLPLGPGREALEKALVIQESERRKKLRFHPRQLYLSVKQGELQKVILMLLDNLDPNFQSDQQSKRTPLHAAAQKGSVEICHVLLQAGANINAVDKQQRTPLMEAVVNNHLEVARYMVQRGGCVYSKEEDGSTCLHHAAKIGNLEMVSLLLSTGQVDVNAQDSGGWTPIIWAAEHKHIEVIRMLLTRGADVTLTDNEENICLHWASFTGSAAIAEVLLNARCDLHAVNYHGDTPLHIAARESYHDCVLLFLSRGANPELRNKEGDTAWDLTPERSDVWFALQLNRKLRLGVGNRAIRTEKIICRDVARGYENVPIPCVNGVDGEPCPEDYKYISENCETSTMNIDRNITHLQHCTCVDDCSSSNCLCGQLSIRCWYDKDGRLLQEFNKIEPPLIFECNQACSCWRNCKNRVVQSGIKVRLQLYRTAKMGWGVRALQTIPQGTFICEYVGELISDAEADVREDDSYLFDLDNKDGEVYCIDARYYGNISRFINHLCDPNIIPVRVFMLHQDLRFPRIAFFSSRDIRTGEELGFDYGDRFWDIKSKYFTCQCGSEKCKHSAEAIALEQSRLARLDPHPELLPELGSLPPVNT
T1 sequence (Q9H9B1 2-1298 limits assumed): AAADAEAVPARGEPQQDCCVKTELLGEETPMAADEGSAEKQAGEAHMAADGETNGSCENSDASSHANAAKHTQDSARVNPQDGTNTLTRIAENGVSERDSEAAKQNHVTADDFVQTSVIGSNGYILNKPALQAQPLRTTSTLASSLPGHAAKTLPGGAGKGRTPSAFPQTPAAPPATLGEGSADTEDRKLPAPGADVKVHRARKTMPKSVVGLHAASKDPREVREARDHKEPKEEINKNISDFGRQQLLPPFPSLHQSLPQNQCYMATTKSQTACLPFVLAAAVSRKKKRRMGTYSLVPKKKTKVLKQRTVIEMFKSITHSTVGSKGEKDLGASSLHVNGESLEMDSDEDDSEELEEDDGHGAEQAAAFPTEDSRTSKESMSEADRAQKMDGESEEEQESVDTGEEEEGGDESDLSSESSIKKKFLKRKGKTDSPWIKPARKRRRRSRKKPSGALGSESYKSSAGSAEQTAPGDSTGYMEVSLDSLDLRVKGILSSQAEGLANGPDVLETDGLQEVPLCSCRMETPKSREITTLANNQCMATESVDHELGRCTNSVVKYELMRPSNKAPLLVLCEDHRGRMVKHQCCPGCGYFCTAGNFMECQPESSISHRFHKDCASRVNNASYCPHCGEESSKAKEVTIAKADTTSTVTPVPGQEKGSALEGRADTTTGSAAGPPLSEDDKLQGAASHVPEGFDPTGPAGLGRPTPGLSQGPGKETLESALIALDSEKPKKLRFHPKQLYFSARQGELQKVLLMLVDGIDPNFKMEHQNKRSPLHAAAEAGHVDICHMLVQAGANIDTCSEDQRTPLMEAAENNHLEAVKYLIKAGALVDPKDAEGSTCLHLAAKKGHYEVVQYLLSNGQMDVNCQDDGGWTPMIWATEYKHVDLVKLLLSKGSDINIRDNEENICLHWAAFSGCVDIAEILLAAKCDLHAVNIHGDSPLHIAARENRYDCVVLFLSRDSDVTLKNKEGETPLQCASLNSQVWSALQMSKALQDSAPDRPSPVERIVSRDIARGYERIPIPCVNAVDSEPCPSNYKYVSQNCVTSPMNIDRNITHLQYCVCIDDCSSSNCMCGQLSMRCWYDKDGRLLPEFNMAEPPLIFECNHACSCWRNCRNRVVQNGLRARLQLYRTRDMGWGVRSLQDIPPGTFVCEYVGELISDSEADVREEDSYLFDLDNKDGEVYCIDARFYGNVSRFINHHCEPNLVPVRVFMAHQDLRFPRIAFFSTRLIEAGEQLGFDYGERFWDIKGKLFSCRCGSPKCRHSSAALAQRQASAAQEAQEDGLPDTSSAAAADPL

[2] = test system: 3×MBT domain of L3MBTL1; test: Triple SILAC pull-down, 3xMBT/3xMBTD355N ratio (cytoplasmic, nuclear and chromatin fractions of 293T cells); assay type: binding, human; settings: for 3xMBT/D355N UNC Heavy: experiment with UNC0638 in heavy SILAC media; for 3xMBT/D355N UNC Light: experiment with UNC0638 in light SILAC media;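 on all read-outs here: proteins quantified with MaxQuant, requiring at least two unique peptides and quantification in both label directions, normalized to the mean of proteins from a digested loading control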
[3] = SILAC ratio DMSO/UNC0638 of protein pulled down with 3xMBT
[4] = SILAC ratio, pull-down 3xMBT vs 3xMBTD355N
[5] = SILAC ratio DMSO relative to UNC0638, pull-down with 3xMBT, all values in log base 2
[6] = SILAC ratio 3xMBT vs 3xMBTD355N pull-down, 293T cells, all values in log base 2

Relative to UNC0638 UNC Heavy [1, 3]: 0.46 log base 2
Relative to UNC0638 UNC Light [1, 3]: 0.50 log base 2
Relative to UNC0638 Average [1]: 0.48 log base 2
Candidate G9a/GLP target ([1]; reduced association with 3xMBT after UNC0638 treatment): ✓
B1: PPIL4 (protein, UniProt Q8WUA2 1-492, looked up)
Peptidyl-prolyl cis-trans …: MAVLLETTLGDVVIDLYTEERPRACLNFLKLCKIKYYNYCLIHNVQRDFIIQTGDPTGTGRGGESIFGQLYGDQASFFEAEKVPRIKHKKKGTVSMVNNGSDQHGSQFLITTGENLDYLDGVHTVFGEVTEGMDIIKKINETFVDKDFVPYQDIRINHTVILDDPFDDPPDLLIPDRSPEPTREQLDSGRIGADEEIDDFKGRSAEEVEEIKAEKEAKTQAILLEMVGDLPDADIKPPENVLFVCKLNPVTTDEDLEIIFSRFGPIRSCEVIRDWKTGESLCYAFIEFEKEEDCEKAFFKMDNVLIDDRRIHVDFSQSVAKVKWKGKGGKYTKSDFKEYEKEQDKPPNLVLKDKVKPKQDTKYDLILDEQAEDSKSSHSHTSKKHKKKTHHCSEEKEDEDYMPIKNTNQDIYREMGFGHYEEEESCWEKQKSEKRDRTQNRSRSRSRERDGHYSNSHKSKYQTDLYERERSKKRDRSRSPKKSKDKEKSKYR
3xMBT/D355N UNC Heavy [2, 4]: 1.63 log base 2
3xMBT/D355N UNC Light [2, 4]: 2.38 log base 2

Relative to UNC0638 UNC Heavy [1, 5]: 0.21 log base 2
Relative to UNC0638 UNC Light [1, 5]: −0.06 log base 2
Relative to UNC0638 Average ([1]; all values in log base 2): 0.07 log base 2
B2: STRBP (protein, UniProt Q96SI9 1-672, looked up)
Spermatid perinuclear …: MRSIRSFANDDRHVMVKHSTIYPSPEELEAVQNMVSTVECALKHVSDWLDETNKGTKTEGETEVKKDEAGENYSKDQGGRTLCGVMRIGLVAKGLLIKDDMDLELVLMCKDKPTETLLNTVKDNLPIQIQKLTEEKYQVEQCVNEASIIIRNTKEPTLTLKVILTSPLIRDELEKKDGENVSMKDPPDLLDRQKCLNALASLRHAKWFQARANGLKSCVIVLRILRDLCNRVPTWAPLKGWPLELICEKSIGTCNRPLGAGEALRRVMECLASGILLPGGPGLHDPCERDPTDALSYMTIQQKEDITHSAQHALRLSAFGQIYKVLEMDPLPSSKPFQKYSWSVTDKEGAGSSALKRPFEDGLGDDKDPNKKMKRNLRKILDSKAIDLMNALMRLNQIRPGLQYKLLSQSGPVHAPVFTMSVDVDGTTYEASGPSKKTAKLHVAVKVLQAMGYPTGFDADIECMSSDEKSDNESKNETVSSNSSNNTGNSTTETSSTLEVRTQGPILTASGKNPVMELNEKRRGLKYELISETGGSHDKRFVMEVEVDGQKFRGAGPNKKVAKASAALAALEKLFSGPNAANNKKKKIIPQAKGVVNTAVSAAVQAVRGRGRGTLTRGAFVGATAAPGYIAPGYGTPYGYSTAAPAYGLPKRMVLLPVMKFPTYPVPHYSFF
3xMBT/D355N UNC Heavy [2, 6]: 2.70 log base 2
3xMBT/D355N UNC Light [2, 6]: 3.07 log base 2

Relative to UNC0638 UNC Heavy [1, 5]: 0.12 log base 2
Relative to UNC0638 UNC Light [1, 5]: 0.04 log base 2
Relative to UNC0638 Average ([1]; all values in log base 2): 0.08 log base 2
B3: UBXN1 (protein, UniProt Q04323 2-297, looked up)
UBX domain-containing protein …: AELTALESLIEMGFPRGRAEKALALTGNQGIEAAMDWLMEHEDDPDVDEPLETPLGHILGREPTSSEQGGLEGSGSAAGEGKPALSEEERQEQTKRMLELVAQKQREREEREEREALERERQRRRQGQELSAARQRLQEDEMRRAAEERRREKAEELAARQRVREKIERDKAERAKKYGGSVGSQPPPVAPEPGPVPSSPSQEPPTKREYDQCRIQVRLPDGTSLTQTFRAREQLAAVRLYVELHRGEELGGGQDPVQLLSGFPRRAFSEADMERPLQELGLVPSAVLIVAKKCPS
3xMBT/D355N UNC Heavy [2, 6]: 0.62 log base 2
3xMBT/D355N UNC Light [2, 6]: 1.91 log base 2

Relative to UNC0638 UNC Heavy [1, 5]: 0.27 log base 2
Relative to UNC0638 UNC Light [1, 5]: −0.12 log base 2
Relative to UNC0638 Average ([1]; all values in log base 2): 0.07 log base 2
B4: SNRNP40 (protein, UniProt Q96DI7 1-357, looked up)
U5 small nuclear …: MIEQQKRKGPELPLVPVKRQRHELLLGAGSGPGAGQQQATPGALLQAGPPRCSSLQAPIMLLSGHEGEVYCCKFHPNGSTLASAGFDRLILLWNVYGDCDNYATLKGHSGAVMELHYNTDGSMLFSASTDKTVAVWDSETGERVKRLKGHTSFVNSCYPARRGPQLVCTGSDDGTVKLWDIRKKAAIQTFQNTYQVLAVTFNDTSDQIISGGIDNDIKVWDLRQNKLTYTMRGHADSVTGLSLSSEGSYLLSNAMDNTVRVWDVRPFAPKERCVKIFQGNVHNFEKNLLRCSWSPDGSKIAAGSADRFVYVWDTTSRRILYKLPGHAGSINEVAFHPDEPIIISASSDKRLYMGEIQ
3xMBT/D355N UNC Heavy [2, 6]: 2.39 log base 2
3xMBT/D355N UNC Light [2, 6]: 2.64 log base 2

— US20140274782A1, “AFFINITY REAGENTS AND METHODS FOR DETECTION, PURIFICATION, AND PROTEOMIC ANALYSIS OF METHYLATED PROTEINS” (The Board of Trustees of the Leland Stanford Junior …, priority 2013, published 2014)
